Measured values from US20160082105A1, “Antibody Buffering of a Ligand in Vivo” (ARROWSMITH TECHNOLOGIES CORPORATION, priority 2004, published 2016).

How the values were obtained:
[1] = Antibody buffering of lysozyme: free lysozyme in plasma after Protein A-Sepharose separation; assay type: in vivo, rat; conditions: lysozyme administered with D1.3, compared with lysozyme alone
Description: (§1) Rats (300 g Sprague-Dawley males, Zivic Laboratories, Zelionople, Pa.) were implanted with a jugular vein cannula. The rats were freely moving throughout the experiment and were allowed access to food and water. Samples were prepared for infusion consisting of 43 μg ^14C-lysozyme with or without 450 μg D1.3 antibody. The volume was brought to 1 ml using sterile normal saline and the sample was incubated at 37° C. prior to use. The sample was infused through the jugular cannula over 5 minutes using an HP infusion pump. Following the infusion, the cannula was flushed with 0.2 ml of heparinized saline (250 units/ml) to reduce the risk of clotting. […] Blood samples (0.5 ml) were withdrawn from the cannula at various timepoints. The blood was immediately centrifuged to separate out the plasma. Plasma (0.1 ml) was mixed with 5 ml scintillation fluid and counted. Another 0.1 ml was used in bound vs. free lysozyme experiments described herein. The cellular pellet was mixed with scintillation fluid and counted also.
Following blood sample centrifugation to separate out the plasma, 0.1 ml of plasma was loaded onto a 1.5 ml Protein A-Sepharose mini-column. The column was washed with 3 ml of PBS in 0.5 ml increments followed by 3 ml of 100 mM citric acid in 0.5 ml increments. The PBS (free lysozyme) and citric acid (antibody-bound lysozyme) fractions were collected separately for each timepoint. […]

[2] = Antibody buffering of lysozyme: total 14C-lysozyme in rat plasma; assay type: in vivo
Description: as §1
Sprague-Dawley rats implanted with a jugular cannula were infused with 43 μg ^14C-lysozyme and either 450 μg or 900 μg of D1.3 antibody. The volume infused was brought up to 1 ml using sterile normal saline. The samples were prepared and infused and timepoints were taken and analyzed as described above. Bound vs. free separation analyses were not performed.
Sprague-Dawley rats implanted with a jugular cannula were infused with 450 μg of D1.3 antibody and either 43 μg or 430 μg of ^14C-lysozyme. The samples were prepared, infused, and timepoints were taken and analyzed as described above.
Two samples were prepared for infusion. The first sample, consisting of 450 μg D1.3 antibody diluted to 0.5 ml with sterile normal saline, was infused over 4 minutes using an HP infusion pump. The rat was allowed to move freely in its cage for 10 minutes to allow the antibody time to equilibrate within the circulation. Then the second sample, consisting of 43 μg ^14C-lysozyme made up to 0.5 ml using sterile normal saline, was infused over 4 minutes. The end of the second infusion was designated as time zero (0). Blood samples were taken and analyzed as described above.
To determine the pharmacokinetic profile of lysozyme using a radioactive method of lysozyme detection, ^14C-lysozyme was infused through a jugular cannula into the bloodstream of a rat. Lysozyme elimination was followed through blood sampling at various time intervals spanning 4 hours. The plasma was collected after centrifugation and subjected to scintillation counting. […] Each rat in these and in the following studies was used only once to limit the possibility of an immune response to either the lysozyme or the antibody.

With “lysozyme: hen egg lysozyme radioactively labeled with 14C, model protein ligand” the “free lysozyme pool in plasma” value [1] was “remained at a more constant level”, the “plasma β-half life of lysozyme” value ([2]; 14C-lysozyme administered alone, jugular infusion) was 16.4 min and the “radioactivity in the cellular pellet of blood” value ([2]; 14C-lysozyme alone or with D1.3) was “Little radioactivity”. For the same substance, the “plasma β-half life of lysozyme” value ([2]; 14C-lysozyme with equimolar D1.3) was 42.8 min, the “plasma β-half life of lysozyme” value ([2]; 14C-lysozyme with two times the molar amount of D1.3) was 61.3 min and the “total lysozyme level in plasma at later timepoints relative to equimolar group” value ([2]; D1.3 with ten times the molar concentration of 14C-lysozyme) was “about twice as high”. The “total lysozyme concentration in plasma after sequential administration” value ([2]; equimolar lysozyme infused ten minutes after D1.3) was “quickly equilibrated to a level very similar to that attained when the D1.3 and lysozyme were administered together”.
